The values that follow come from the nanobody polyreactivity screen of Harvey et al. (2022).

A short description of the data set: yeast display, Sf9 membrane polyspecificity reagent, FACS + sequencing; frameworks hold sequencing errors. The gist of the method: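 Genes from sorted yeast were amplified by colony PCR, read by MiSeq 2 × 250 sequencing and filtered on CDR length. These cells carried a synthetic nanobody library in Saccharomyces cerevisiae BJ5465 and were sorted by FACS into low and high (top ~1%) gates on anti-HA and streptavidin fluorescence. Polyreactivity is labelled according to the gate of origin.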
For the sequence “QVQLVESGGGLVQAGGSLRLSCAASGSIFGRYVMGWYRQAPGKERELVAAISGSGTSTYYADSVKGRFTISRDNAKNTVFLQMNSLKPEDTAVYYCAARDIKSSHDYDYWGQGTQVTVSS”, the “polyreactivity (PSR sort gate)” value is on record as “low polyreactivity”.

Take “QVQLVESGGGLVQAGGSLRLSCAASGSIFGSNAMGWYRPAPGKERELVAAITNTGRTNYADSVKGRFTISRDNAKNTVYLQMNSLKPEDTAVYYCYTDGYEFTHFVGGWYQIIDYDYWGQGTQVTVSS”: the “polyreactivity (PSR sort gate)” value is reported as “low polyreactivity”.

Regarding “QVQLVESGGGLVQAGGSLRLSCAASGSIFGSNAMGWYRQAPGKERELVAAISVRDGSTSYADSVKGRFTISRDNAKNTVYLQMNSLKPEDPAVYYCTAKSLAERYYRPEMDYWGQGTQVTVSS”, the “polyreactivity (PSR sort gate)” value is on record as “low polyreactivity”.

Consider “QVQLVESGGGLVQAGGSLRLSCAASGSIFGSNAMGWYRQAPGKERELVAAITNTGRTNYADSVKGRFTISRDYAKNTVYLQMNSLKPEDTAVYYCNADWRRSHAYGYWGQGTQVTVSS”, for which the “polyreactivity (PSR sort gate)” value is “low polyreactivity”.

Take “QVQLVESGGGLVQAGGSLRLSCAASGSIFGSNAMGWYRQAPGKERELVAANSKSGGSTYYADSVKGRFTISRDNAKITVYLQMNSLKPEDTAVYYCNARWWVVTFYGRYEGDYWGQGTQVTVSS”: the “polyreactivity (PSR sort gate)” value is “low polyreactivity”.

“QVQLVESGGGLVQAGGSLRLSCAASGSIFGSNAMGWYRRAPGKERELVAVINASGASTYYADSVKGRFTISRDNAKNTVYLQKNSLKPEDTAVYYCAKDPFPFPGGDYWGQGTQVTVSS”: the “polyreactivity (PSR sort gate)” value is on record as “low polyreactivity”.

Turning to “QVQLVESGGGLVQAGGSLRLSCAASGSIFGSYAMGWYRQAPGKERELVAAISKSGGNTYYADSVKGRFTISRDNAKNTVYLQMNSLKPEDTAVYYCAAYGFYRWRGYDYWGQGTQVTVSS”, the “polyreactivity (PSR sort gate)” value is recorded as “high polyreactivity”.

Regarding “QVQLVESGGGLVQAGGSLRLSCAASGSIFGSYTMGWYRQAPGKERELVAAITTSGSSTYYADSVKGRFTISRDNAKNTVYLQMNSLKPEDTAVYYCSAEYYVTYPPYGWYDYWGHGTQVTVSS”, the “polyreactivity (PSR sort gate)” value was “high polyreactivity”.

As to “QVQLVESGGGLVQAGGSLRLSCAASGSIFGSYVMGGYRQAPGKERELVATITNGGSTYYADSVKGRFTISRDNAKNTVYLQMNSLKPEDTAVYYCAADGRGDLYVWPGIGGDYWGQGTQVTVSS”, the “polyreactivity (PSR sort gate)” value is “low polyreactivity”.

Consider “QVQLVESGGGLVQAGGSLRLSCAASGSIFGTNAMGWYIQAPGKEREFVATISSRTGSTYYADSVKGRFTFSRDNAKNTVYLQMNSLKPEDTAVYYCAAVRWYGKYDYWGQGTQVTVSS”, for which the “polyreactivity (PSR sort gate)” value is on record as “low polyreactivity”.

Regarding “QVQLVESGGGLVQAGGSLRLSCAASGSIFGTYAMGWYRQAPGKARELVAAITGSGGRTYYADSVKGRFTISRDNAKNTVYLQMNSLKPEDTAVYYCNKVVYVRSYPPRYDYWGQGTQVTVSS”, the “polyreactivity (PSR sort gate)” value is given as “high polyreactivity”.

With “QVQLVESGGGLVQAGGSLRLSCAASGSIFGTYAMGWYRQAPGKERELVAAISWSDGSTYYADSVKGRFTISRDNAKNTVYLQMNSLKPEDTAVYYCAKVYRSIGPNVSRYGLSYYYWGQGTQVTVSS”, the “polyreactivity (PSR sort gate)” value is listed as “low polyreactivity”.

For “QVQLVESGGGLVQAGGSLRLSCAASGSIFGTYAMGWYRQAPGKERELVAAITGSGGRTYYADSVKGRFTISRDNAKNTVYLQMNSLKPEDTAVYYCNKVVYVRSYPPRYDYWGQGTQVSVSS”, the “polyreactivity (PSR sort gate)” value was “high polyreactivity”.

On to “QVQLVESGGGLVQAGGSLRLSCAASGSIFGTYAMRWYIQAPGKERDLVATISYGDGYTYYADSVKGRFTISRDNAKNTVYLLMNSLKPEDTPVYYCNTGVFSSGGPLVYWGEGTQVTVSS”, for which the “polyreactivity (PSR sort gate)” value is “low polyreactivity”.

As for “QVQLVESGGGLVQAGGSLRLSCAASGSIFGVNMGWYRQAPGKERELVASITSGGSTNYADSVKGRFTISRDNAKNTVYLQMNSLKPEDTAVYYCATDRYVWGQGTQVTVSS”, the “polyreactivity (PSR sort gate)” value is on record as “low polyreactivity”.

In the case of “QVQLVESGGGLVQAGGSLRLSCAASGSIFGVYAMGLYRQAPGKERELVASIDTSTGSTYYADSVKGRFTISRDNAKNTVYLQMNSLKPEDTAVYYCNADVGYYFTFEYWGQGTQVTVSS”, the “polyreactivity (PSR sort gate)” value is reported as “high polyreactivity”.

As to “QVQLVESGGGLVQAGGSLRLSCAASGSIFGVYAMGWYRQAPGKERELVAGITFGDSTTYYADSVKGRFTISRDNAKNTVYLQMNSLKPEDTAVYYCAADNRWEDYKVDYWGQGTQVTVSS”, the “polyreactivity (PSR sort gate)” value is reported as “low polyreactivity”.

For “QVQLVESGGGLVQAGGSLRLSCAASGSIFGVYAMGWYRQAPGKERELVAVITYRDGSTYYADSVKGRFTISRVNAKNTVYLQMNSLKPEDSAVYYCAADSYLGWHSDYGVEYYYWGQGTQVTVSS”, the “polyreactivity (PSR sort gate)” value is “low polyreactivity”.

In the case of “QVQLVESGGGLVQAGGSLRLSCAASGSIFGVYDMGWYRQAPGKERELVAVINSNGGSTYYADSVKGRFTISRDNAKNTVYLQMNSLKPEDTAVYYCAAERATVKFGYWGQGTQVTVSS”, the “polyreactivity (PSR sort gate)” value was “low polyreactivity”.

On to “QVQLVESGGGLVQAGGSLRLSCAASGSIFGYNARGWYRQAPGKERELVATINWSGTSTYYAASVKGRFTISRDNAKNTVYLQMNSLKPVDTAVYYCNAKYLWYGRYNYWGQGTQVTVSS”, for which the “polyreactivity (PSR sort gate)” value was “high polyreactivity”.

With “QVQLVESGGGLVQAGGSLRLSCAASGSIFGYNTMGWYREAPGKERELVAAISYRGGSTYADSVKGRFTISRDNAKNTVYLQLNSLKPEDTAVYYSAATSYTATWRYYYWGQGTQVTVSS”, the “polyreactivity (PSR sort gate)” value is given as “high polyreactivity”.

As for “QVQLVESGGGLVQAGGSLRLSCAASGSIFGYNVMGWYRQAPGKERELVAAITYSGGSTYYADSVKGRFTISRDNAKNTVYLQMNSQKQEDTAVYYCAKVTGRRFPAYGYDHWGQGTQVTVSS”, the “polyreactivity (PSR sort gate)” value is listed as “high polyreactivity”.

Turning to “QVQLVESGGGLVQAGGSLRLSCAASGSIFGYYALGWSRPAPGKERELVASITSGDSTNYADSVKGRFTISRDNAKKTVYLQMNSQKPEDTAVYYCTTERGDYDEYDYWGQGTQVTVSS”, the “polyreactivity (PSR sort gate)” value is recorded as “low polyreactivity”.

For “QVQLVESGGGLVQAGGSLRLSCAASGSIFGYYAMGWYRQAPGKERELVAAINSSGGSTYYADSVKGRFTISRDNAKNTVYLQMNSLKPDDTAVYYCAVRTRYKFNYWGQGTQVTVSS”, the “polyreactivity (PSR sort gate)” value was “low polyreactivity”.

Turning to “QVQLVESGGGLVQAGGSLRLSCAASGSIFGYYAMGWYRQAPGKERELVAAISVSGGSTYYADSVKGRFTISRDNAKNTVYLQMNSLKPEDTAVYYCKKVQGSWRVPYYYWGQGTQVTVSS”, the “polyreactivity (PSR sort gate)” value is “high polyreactivity”.

“QVQLVESGGGLVQAGGSLRLSCAASGSIFGYYAMGWYRQAPGKERELVAAITRSGGSTYYADSVKGRFTISRDNAKNTVYLQMNSLKPEDTAVYYCNAVRYAVRLPAFPGYDYWGQGTQVTVSS”: the “polyreactivity (PSR sort gate)” value is reported as “high polyreactivity”.

Regarding “QVQLVESGGGLVQAGGSLRLSCAASGSIFGYYAMGWYRQAPGKERELVAAITWNADGTYYADSVKGRFTISRDNAKNTVYLQMNSLKPEDTAVYYCAADQYYQDWGGGYDYWGQGTQVTVSS”, the “polyreactivity (PSR sort gate)” value is on record as “low polyreactivity”.

As to “QVQLVESGGGLVQAGGSLRLSCAASGSIFGYYAMGWYRQAPGKERELVAAITWSGDSTYYADSVKGRFTISRDNAKNTVYLQMNSLKPEDTAVYYCAARQFVHTRYFSFGYWGQGTQVTVSS”, the “polyreactivity (PSR sort gate)” value is recorded as “low polyreactivity”.

With “QVQLVESGGGLVQAGGSLRLSCAASGSIFGYYAMGWYRQAPGKERELVAAITYSGGNTNYADSVKGRFTISRDNAKNTVYLQMNSLKPEDTAVYYCAARKNYQAVYARRTRYYYWGQGTQVTVSS”, the “polyreactivity (PSR sort gate)” value is “high polyreactivity”.

Regarding “QVQLVESGGGLVQAGGSLRLSCAASGSIFGYYAMGWYRQAPGKERELVARISYSGGTTYYADSVKGRFTISRDNAKNTVYLQMNSLKPEDTAVYYCNARIPYSWRYGYWGQGTQVTVSS”, the “polyreactivity (PSR sort gate)” value is on record as “high polyreactivity”.
